The record followed here is article PMC10746525 (2023).

Sequences and labels used below:
B1: MIRO1_(177-591) (domain or fragment)
chain: EEKEMKPACIKALTRIFKISDQDNDGTLNDAELNFFQRICFNTPLAPQALEDVKNVVRKHISDGVADSGLTLKGFLFLHTLFIQRGRHETTWTVLRRFGYDDDLDLTPEYLFPLLKIPPDCTTELNHHAYLFLQSTFDKHDLDRDCALSPDELKDLFKVFPYIPWGPDVNNTVCTNERGWITYQGFLSQWTLTTYLDVQRCLEYLGYLGYSILTEQESQASAVTVTRDKKIDLQKKQTQRNVFRCNVIGVKNCGKSGVLQALLGRNLMRQKKIREDHKSYYAINTVYVYGQEKYLLLHDISESEFLTEAEIICDVVCLVYDVSNPKSFEYCARIFKQHFMDSRIPCLIVAAKSDLHEVKQEYSISPTDFCRKHKMPPPQAFTCNTADAPSKDIFVKLTTMAMYPHVTQADLKSST
B2: TRAK1_(394-434) (peptide)
peptide: PDITHQKRVFETVRNINQVVKQRSLTPSPMNIPGSNQSSAM
B3: MBP-TRAK1_(342-431) (domain or fragment)
chain: EAQEELKNLRNKTMPNTTSRRYHSLGLFPMDSLAAEIEGTMRKELQLEEAESPDITHQKRVFETVRNINQVVKQRSLTPSPMNIPGSNQS

Numbering of substitutions follows the chain as printed. “And” between values parts separate entries of the source, which are not always exact repeats. Equal values may be shown once. Read-outs that look alike come from different tables or passages of the source.

In test [1] the target is T1, MBP-TRAK1_(342-431) ^400KR^401 to AA (human, UniProt Q9UPV9 342-431, ^400KR^401 to AA).
T1 sequence: B3 chain with K59A, R60A
The test is described as follows: ITC; 5 mM EGTA, 1 mM MgCl2, 0.1 uM GTP; reverse titration, experiment 2. On the technique in general: In ITC the heat of successive injections is recorded.

Test [2] has as its target T1, MBP-TRAK1_(342-431) ^400KR^401 to AA. The test is described as follows: ITC; 5 mM EGTA; MIRO1 in syringe.
The target is the same in test [3]. The test is described as follows: ITC; 5 mM EGTA, 1 mM MgCl2, 0.1 uM GTP; experiment 2.
The target is the same in test [4]. The test is described as follows: ITC; 5 mM EGTA, 1 mM MgCl2, 0.1 uM GTP; experiment 1.
The target is the same in test [5]. The test is described as follows: ITC; 5 mM EGTA, 1 mM MgCl2, 0.1 uM GTP; experiment 3.
Another test deals with T2, GCN4-TRAK1_(342-431) ( | human, UniProt Q9UPV9 342-431).
T2 chain: B3 chain
Description: ITC.

The test “MBP-TRAK1_(342-431)” deals with B3. The test is described as follows: ITC.
The target of test [6] is T1, MBP-TRAK1_(342-431) ^400KR^401 to AA. The test is described as follows: ITC; 5 mM EGTA, 1 mM MgCl2, 0.1 uM GTP; reverse titration, experiment 3.
The target is the same in test [7]. The test is described as follows: ITC; 5 mM EGTA; TRAK1 in syringe.
Test [8] shares this target. Description: ITC; 5 mM EGTA, 1 mM MgCl2, 0.1 uM GTP; reverse titration, experiment 1.
For test [9], the target named is B1. The test is described as follows: ITC.
In test [10] the target is B1. Description: ITC. This is another data set of the same source.
Test [11] deals with T3, MIRO1_(177-591) E208A (human, UniProt Q8IXI2 177-591, E208A). Description: ITC; 5 mM EGTA, 1 mM MgCl2, 0.1 uM GTP; experiment 2.
In test [12] the target is T4, MIRO1_(177-591) E328A (human, UniProt Q8IXI2 177-591, E328A). The description is as above.
For test [13], the target named is T3, MIRO1_(177-591) E208A. The test is described as follows: ITC; 5 mM EGTA, 1 mM MgCl2, 0.1 uM GTP; experiment 1.
Test [14] deals with T4, MIRO1_(177-591) E328A. Described as above.
Test [15] deals with B1. Description: ITC. This is another data set of the same source.
Test [16] addresses T3, MIRO1_(177-591) E208A. Description: ITC; 5 mM EGTA, 1 mM MgCl2, 0.1 uM GTP; experiment 3.
Test [17] concerns the target T4, MIRO1_(177-591) E328A. The test is described as above.
Test [18] deals with T3, MIRO1_(177-591) E208A. Description: ITC; 5 mM EGTA.
In test [19] the target is T4, MIRO1_(177-591) E328A. Description: ITC; 5 mM EGTA.

With B1, the Kd in test [1] was 11.3 µM; in [2], 7.52 µM; in test [3], 2.98 µM; in test [4] it was 4.39 µM; in [5], 3.98 µM; with GCN4-TRAK1_(342-431), 3.52 µM and 9.35 µM. For the same molecule, the Kd was 5.95 µM and 6.02 µM and 8 µM and 5.38 µM with MBP-TRAK1_(342-431); 8.55 µM in test [6]; 9.62 µM in test [7]; 7.52 µM in test [8].

As for B2, the Kd was 4.39 µM with MIRO1_(177-591) [9]; 9.62 µM and 6.1 µM and 5.65 µM in the test with MIRO1_(177-591) [10].

On to B3, for which the Kd with MIRO1_(177-591) E208A [11] came out at 9.09 µM; with MIRO1_(177-591) E328A [12], 10.1 µM; in the test with MIRO1_(177-591) E208A [13], 8.85 µM; in the test with MIRO1_(177-591) E328A [14] it was 9.17 µM; with MIRO1_(177-591) [15], 10.6 µM; with MIRO1_(177-591) E208A [16], 3.86 µM. In addition, the Kd turned out to be 10.3 µM in the test with MIRO1_(177-591) E328A [17], 9.09 µM with MIRO1_(177-591) E208A [18] and 10.1 µM with MIRO1_(177-591) E328A [19].

Usually Kd stands for the constant that tells how readily two partners part at equilibrium. Low values mean a tighter complex, high ones a looser complex.
